Legend:
[1] = target: T1, PSA 146-154 peptide/HLA-A*02:01 complex on the cell surface (human); experiment: flow cytometry, phage on T2 cells, anti-M13 + R-PE anti-mouse IgG
T1 construct: also called PSA146/HLA-A*02:01; PSA146-loaded T2 cells
Excerpt: (§1) Binding of the phage clones was detected by HRP-conjugated anti-M13 antibodies and developed using HRP substrate. The absorbance was read at 450 nm. […] Then, unique antibody clones were identified through DNA sequencing of ELISA-positive clones. […] T2 cells loaded with different peptides and β2M were first stained with purified scFv phage clones, followed by staining with a mouse anti-M13 mAb, and finally R-PE conjugated horse anti-mouse IgG from Vector Labs. Each step of the staining was performed for between 30-60 minutes on ice and the cells were washed twice between stainings. All 16 clones recognized PSA146-loaded T2 cells specifically. FIG. 3 provides examples of PSA146/HLA-A*02:01 specific phage clone binding to peptide-loaded T2 cells through FACS. […] The negative control scFv phage clone presents a human antibody previously found not to bind any cell-surface human antigens.
(§2) To identify additional PSA146/HLA-A*02:01 specific phage clones.

[2] = target: T2, control peptide A2E-1/HLA-A*02:01 complex on T2 cells (member of the P19 mixture) (human); experiment: flow cytometry, phage on T2 cells
T2 construct: Loaded on T2 cells as part of the mixture of 19 control peptides
Excerpt: as §1, §2

[3] = target: T3, control peptide A2E-14/HLA-A*02:01 complex on T2 cells (member of the P19 mixture) (human); experiment: flow cytometry, phage on T2 cells
T3 construct: Loaded on T2 cells as part of the mixture of 19 control peptides
Excerpt: as §1, §2

[4] = target: T4, control peptide A2E-4/HLA-A*02:01 complex on T2 cells (member of the P19 mixture) (human); experiment: flow cytometry, phage on T2 cells
T4 construct: Loaded on T2 cells as part of the mixture of 19 control peptides
Excerpt: as §1, §2

[5] = target: T5, control peptide A2E-17/HLA-A*02:01 complex on T2 cells (member of the P19 mixture) (human); experiment: flow cytometry, phage on T2 cells
T5 construct: Loaded on T2 cells as part of the mixture of 19 control peptides
Excerpt: as §1, §2

[6] = target: T6, control peptide A2E-3/HLA-A*02:01 complex on T2 cells (member of the P19 mixture) (human); experiment: flow cytometry, phage on T2 cells
T6 construct: Loaded on T2 cells as part of the mixture of 19 control peptides
Excerpt: as §1, §2

[7] = target: T7, control peptide A2E-15/HLA-A*02:01 complex on T2 cells (member of the P19 mixture) (human); experiment: flow cytometry, phage on T2 cells
T7 construct: Loaded on T2 cells as part of the mixture of 19 control peptides
Excerpt: as §1, §2

[8] = target: T8, control peptide A2E-2/HLA-A*02:01 complex on T2 cells (member of the P19 mixture) (human); experiment: flow cytometry, phage on T2 cells
T8 construct: Loaded on T2 cells as part of the mixture of 19 control peptides
Excerpt: as §1, §2

[9] = target: T9, control peptide A2E-10/HLA-A*02:01 complex on T2 cells (member of the P19 mixture) (human); experiment: flow cytometry, phage on T2 cells
T9 construct: Loaded on T2 cells as part of the mixture of 19 control peptides
Excerpt: as §1, §2

[10] = target: T10, control peptide A2E-9/HLA-A*02:01 complex on T2 cells (member of the P19 mixture) (human); experiment: flow cytometry, phage on T2 cells
T10 construct: Loaded on T2 cells as part of the mixture of 19 control peptides
Excerpt: as §1, §2

[11] = target: T11, control peptide A2E-5/HLA-A*02:01 complex on T2 cells (member of the P19 mixture) (human); experiment: flow cytometry, phage on T2 cells
T11 construct: Loaded on T2 cells as part of the mixture of 19 control peptides
Excerpt: as §1, §2

[12] = target: T12, control peptide A2E-11/HLA-A*02:01 complex on T2 cells (member of the P19 mixture) (human); experiment: flow cytometry, phage on T2 cells
T12 construct: Loaded on T2 cells as part of the mixture of 19 control peptides
Excerpt: as §1, §2

[13] = target: T13, control peptide A2E-19/HLA-A*02:01 complex on T2 cells (member of the P19 mixture) (human); experiment: flow cytometry, phage on T2 cells
T13 construct: Loaded on T2 cells as part of the mixture of 19 control peptides
Excerpt: as §1, §2

[14] = target: T14, control peptide A2E-23/HLA-A*02:01 complex on T2 cells (member of the P19 mixture) (human); experiment: flow cytometry, phage on T2 cells
T14 construct: Loaded on T2 cells as part of the mixture of 19 control peptides
Excerpt: as §1, §2

[15] = target: T15, control peptide A2E-16/HLA-A*02:01 complex on T2 cells (member of the P19 mixture) (human); experiment: flow cytometry, phage on T2 cells
T15 construct: Loaded on T2 cells as part of the mixture of 19 control peptides
Excerpt: as §1, §2

[16] = target: T16, control peptide A2E-7/HLA-A*02:01 complex on T2 cells (member of the P19 mixture) (human); experiment: flow cytometry, phage on T2 cells
T16 construct: Loaded on T2 cells as part of the mixture of 19 control peptides
Excerpt: as §1, §2

[17] = target: T17, control peptide A2E-13/HLA-A*02:01 complex on T2 cells (member of the P19 mixture) (human); experiment: flow cytometry, phage on T2 cells
T17 construct: Loaded on T2 cells as part of the mixture of 19 control peptides
Excerpt: as §1, §2

[18] = target: T18, control peptide A2E-6/HLA-A*02:01 complex on T2 cells (member of the P19 mixture) (human); experiment: flow cytometry, phage on T2 cells
T18 construct: Loaded on T2 cells as part of the mixture of 19 control peptides
Excerpt: as §1, §2

[19] = target: T19, control peptide A2E-8/HLA-A*02:01 complex on T2 cells (member of the P19 mixture) (human); experiment: flow cytometry, phage on T2 cells
T19 construct: Loaded on T2 cells as part of the mixture of 19 control peptides
Excerpt: as §1, §2

[20] = target: T20, control peptide A2E-21/HLA-A*02:01 complex on T2 cells (member of the P19 mixture) (human); experiment: flow cytometry, phage on T2 cells
T20 construct: Loaded on T2 cells as part of the mixture of 19 control peptides
Excerpt: as §1, §2

Row | Binder | binding result [1] | binding result [2] | binding result [3] | binding result [4] | binding result [5] | binding result [6] | binding result [7] | binding result [8] | binding result [9] | binding result [10] | binding result [11] | binding result [12] | binding result [13] | binding result [14] | binding result [15] | binding result [16] | binding result [17] | binding result [18] | binding result [19] | binding result [20]
1 | PSA146/HLA-A*02:01-specific scFv phage clone #22 (scFv, V domains shown) VH: EVQLVQSGAEVKKPGESLKISCKGSGYSFTSYWIGWVRQMPGKGLEWMGRIDPSDSYTNYSPSFQGHVTISADKSISTAYLQWSSLKASDTAMYYCARSFGAGYDSWGQGTLVTVSS VL: QSALTQPASVSGSPGQSITISCTGTSSDVGGYNYVSWYQQHPGKAPKLMIYDVSKRPSGVSNRFSGSKSGNTASLTISGLQAEDEADYYCSSYTSSSRYVFGTGTKVTVLG | binds | no binding |  |  |  |  |  |  |  |  |  |  |  |  |  |  |  |  |  | 
2 | PSA146/HLA-A*02:01-specific scFv phage clone #24 (scFv, V domains shown) VH: QVQLVQSGAEVKKPGASVKVSCKASGYTFTSYYMHWVRQAPGKGLEWMGGFDPEDGETIYAQKFQGRVTMTEDTSTDTAYMELSSLRSEDTAVYYCARYPWDHWGQGTLVTVSS VL: QAVVTQEPSLTVSPGGTVTLTCASSTGAVTSGYYPNWFQQKPGQAPRPLIYSTNNKHSWTPARFSGSLLGGKAALTLSGVQPEDEAEYYCLLYYGGQGVFGGGTKLTVLG | binds | no binding | no binding | no binding | no binding | no binding | no binding | no binding | no binding | no binding | no binding | no binding | no binding | no binding | no binding | no binding | no binding | no binding | no binding | no binding
3 | PSA146/HLA-A*02:01-specific scFv phage clone #21 (scFv, V domains shown) VH: QVQLVQSGAEVKKPGASVKVSCKASGYTFTSYYMHWVRQAPGKGLEWMGGFDPEDGETIYAQKFQGRVTMTEDTSTDTAYMELSSLRSEDTAVYYCARYNYDTWGQGTLVTVSS VL: QAVVTQEPSLTVSPGGTVTLTCASSTGTVTSTYYPNWFQQKPGQAPRALIYSTSNRHSWTPARFSGSLLGGKAALTVSGVQPDDEAEYYCLVFYGGVWVFGGGTKLTVLG | binds | no binding | no binding | no binding | no binding | no binding | no binding | no binding | no binding | no binding | no binding | no binding | no binding | no binding | no binding | no binding | no binding | no binding | no binding | no binding
4 | PSA146/HLA-A*02:01-specific scFv phage clone #26 (scFv, V domains shown) VH: QVQLVQSGAEVKKPGASVKVSCKTSGYTFTNYGISWVRQAPGQGLEWMGWISAYNGNTNYAQNLQGRVTMTTDTSTSTAYMELRSLRSDDTAVYYCARSSYYGYLSDGWGQGTLVTVSS VL: LPVLTQPPSASGTPGQRVTISCSGSSSNIGTNYVYWYQQLPGTAPKLLIYSNNQRPSGVPDRFSGSKSGTSASLAISGLRSEDEADYYCAAWDDSLSGLYVFGTGTKVTVLG | binds | no binding | no binding | no binding | no binding | no binding | no binding | no binding | no binding | no binding | no binding | no binding | no binding | no binding | no binding | no binding | no binding | no binding | no binding | no binding
5 | PSA146/HLA-A*02:01-specific scFv phage clone #20 (scFv, V domains shown) VH: EVQLVQSGAEVKKPGESLKISCKGSGYSFTSYRIGWVRQMPGKGLEWMGIIYPGDSDTRYSPSFQGQVTISADKSISTAYLQWSSLKASDTAMYYCARWGLSWDGWGVTDYWGQGTLVTVSS VL: not shown | binds | no binding | no binding | no binding | no binding | no binding | no binding | no binding | no binding | no binding | no binding | no binding | no binding | no binding | no binding | no binding | no binding | no binding | no binding | no binding

Reference: US20200087400A1 (EUREKA THERAPEUTICS, published 2020)
